The target in assay [1] is T1, Terbium (Tb) labeled-SNAP tagged ROBO2 expressed on HEK293 cells (Homo sapiens (Human), UniProt Q9HCK4 22-1378, terbium label on the SNAP tag).
T1 construct: also called Tb-labeled ROBO2 cells; ROBO2 expressing cells; not shown: SNAP tag
T1 sequence: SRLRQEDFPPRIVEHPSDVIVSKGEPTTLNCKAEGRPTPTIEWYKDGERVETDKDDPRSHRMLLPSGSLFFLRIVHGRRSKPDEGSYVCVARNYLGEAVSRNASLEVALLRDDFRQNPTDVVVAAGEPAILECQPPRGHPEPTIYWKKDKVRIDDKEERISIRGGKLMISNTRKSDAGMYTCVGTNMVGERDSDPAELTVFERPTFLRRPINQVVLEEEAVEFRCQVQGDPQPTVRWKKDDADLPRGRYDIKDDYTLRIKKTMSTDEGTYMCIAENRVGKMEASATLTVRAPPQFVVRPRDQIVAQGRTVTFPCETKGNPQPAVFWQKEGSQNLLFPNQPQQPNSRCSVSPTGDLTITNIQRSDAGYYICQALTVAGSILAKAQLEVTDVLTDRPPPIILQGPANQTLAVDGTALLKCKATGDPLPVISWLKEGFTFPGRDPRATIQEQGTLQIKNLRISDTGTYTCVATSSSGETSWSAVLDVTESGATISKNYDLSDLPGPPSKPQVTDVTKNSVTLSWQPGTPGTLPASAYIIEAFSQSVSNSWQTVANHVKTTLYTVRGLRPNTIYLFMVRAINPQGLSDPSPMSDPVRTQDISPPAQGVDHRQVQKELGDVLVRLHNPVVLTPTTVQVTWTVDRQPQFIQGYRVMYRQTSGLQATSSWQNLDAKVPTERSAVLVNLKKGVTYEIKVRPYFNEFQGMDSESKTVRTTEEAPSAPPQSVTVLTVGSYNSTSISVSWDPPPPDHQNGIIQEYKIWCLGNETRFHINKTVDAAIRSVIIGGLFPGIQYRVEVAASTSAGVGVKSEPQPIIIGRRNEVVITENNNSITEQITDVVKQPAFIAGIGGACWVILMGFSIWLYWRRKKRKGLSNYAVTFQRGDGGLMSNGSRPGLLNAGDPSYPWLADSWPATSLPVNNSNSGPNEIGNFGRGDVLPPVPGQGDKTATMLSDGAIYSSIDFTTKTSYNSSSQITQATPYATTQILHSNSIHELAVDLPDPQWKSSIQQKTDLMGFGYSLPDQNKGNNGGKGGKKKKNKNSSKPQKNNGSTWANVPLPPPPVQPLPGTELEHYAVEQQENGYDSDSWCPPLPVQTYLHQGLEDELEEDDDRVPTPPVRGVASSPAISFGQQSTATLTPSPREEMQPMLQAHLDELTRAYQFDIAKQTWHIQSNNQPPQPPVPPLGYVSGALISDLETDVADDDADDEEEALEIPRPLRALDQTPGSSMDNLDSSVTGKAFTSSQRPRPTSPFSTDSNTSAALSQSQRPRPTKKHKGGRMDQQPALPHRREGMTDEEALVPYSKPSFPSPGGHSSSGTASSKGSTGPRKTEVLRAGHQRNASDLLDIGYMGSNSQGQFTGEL
Briefly: HTRF competition, competitor d2-SLIT2-N, ROBO2 HEK293 cells. As to the method:
(§1) Antibodies generated as a result of the affinity maturation campaign were screened by numerous assays for neutralization of SLIT2-N binding, selective binding to ROBO2 over ROBO1, and inhibition of SLIT2-N functional activity (see Table 2). A ROBO2-SLIT2-N homogenous time resolved fluorescence (HTRF) assay was used to identify antibodies that were capable of blocking SLIT2-N binding to ROBO2. In this assay, terbium (Tb) labeled-SNAP tagged ROBO2 expressing HEK293 cells were incubated with 5 nM d2-labeled SLIT-2N in the presence of 1 nM anti-ROBO2 antibodies for 1 hour. After incubation, fluorescence at 665 nm and 620 nm was measured on an Envision multilabel plate reader. […] Maximal signal was defined as the HTRF ratio of Tb-labeled ROBO2 cells with d2-labeled SLIT2-N in the absence of antibody, the minimum signal was defined as the HTRF ratio of Tb-labeled ROBO2 expressing HEK293 cells only. One nanomolar (nM) parental antibody, 93H2, was unable to block the HTRF assay, therefore this concentration was selected to identify clones with a higher affinity than 93H2 (Table 2, HTRF Ratio column). […] Antibodies derived from chain (Abcs series) or CDR shuffling (CTIR-2 series) were evaluated in 11-point, 5-fold dilution series with a top concentration of 1500 nM (Table 2 HTRF IC₅₀).

Assay [2] concerns the target T1, Terbium (Tb) labeled-SNAP tagged ROBO2 …. As to the kind of experiment: HTRF, 5 nM d2-SLIT2-N on Tb-SNAP-ROBO2 HEK293 cells, 1 nM antibody. As to the method:
as §1, with “In” for “Antibodies generated as a result of the affinity maturation campaign were screened by numerous assays for neutralization of SLIT2-N binding, selective binding to ROBO2 over ROBO1, and inhibition of SLIT2-N functional activity (see Table 2). A ROBO2-SLIT2-N homogenous time resolved fluorescence (HTRF) assay was used to identify antibodies that were capable of blocking SLIT2-N binding to ROBO2. In”
HTRF assays were run with 5 nM d2-labeled SLIT2-N and antibodies were added at 1 nM. […] Antibodies derived from chain (Abcs series) or CDR shuffling (CTIR-2 series) were evaluated in 11-point, 5-fold dilution series with a top concentration of 1500 nM, N.T. = not tested; ^cFold selectivity was calculated as Geometric Mean Fluorescent Intensity (Geo MFI) of ROBO2/Geo MFI of ROBO1 binding.
On the technique in general: TR-FRET usually uses a lanthanide donor and a delayed reading to cut background.

B1: CTIR2-1 (antibody, human IgG1, kappa, V domains shown)
VH: EVQLVQSGAEVKKPGASVKVSCKASGYTFTGYYMHWVRQAPGQGLEWMGWINPRSGATNFPQKFQGRVTMTRDTSITTAYMDLSRLRSDDTAVYYCARESGDDAFDIWGQGTMVTVSS
VL: DIVMTQSPSSLSASVGDRVTITCRASQSISSYLNWYQQKPGKAPKLLIYAASSLQYGVPSRFSGSGSGTDFTLTISSLQPEDFATYYCQQSLELGFGGGTKVEIKR
notes: CDR-shuffled IgG
The term IC50 denotes the point on the concentration scale where inhibition reaches its midpoint. For the molecule B1, the IC50 in assay [1] amounted to 159 pM. Besides, the “HTRF Ratio” value in assay [2] came out at 4540.

B2: CTIR2-11 (antibody, human IgG1, kappa, V domains shown)
VH: EVQLVQSGAEVKKPGASVKVSCKASGYTFRGYAMHWVRQAPGQGLEWMGWIDPRTGLTKFPQKFQGRVTMTRDTSITTAYMDLSRLRSDDTAVYYCARESGDDAFDIWGQGTMVTVSS
VL: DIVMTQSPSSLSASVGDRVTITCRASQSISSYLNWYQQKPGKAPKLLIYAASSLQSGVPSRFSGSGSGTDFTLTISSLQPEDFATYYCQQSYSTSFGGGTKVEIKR
notes: CDR-shuffled IgG
B2 registered an IC50 in assay [1] of 182 pM. Besides, the “HTRF Ratio” value in assay [2] came to 4780.

B3: CTIR2-7 (antibody, human IgG1, kappa, V domains shown)
VH: EVQLVQSGAEVKKPGASVKVSCKASGYTFTGYYMHWVRQAPGQGLEWMGWINPKSGATNFPQKFQGRVTMTRDTSITTAYMDLSRLRSDDTAVYYCARESGDDAFDIWGQGTMVTVSS
VL: DIVMTQSPSSLSASVGDRVTITCRASQKISSYLNWYQQKPGKAPKLLIYAASSLQYGVPSRFSGSGSGTDFTLTISSLQPEDFATYYCQQSLELGFGGGTKVEIKR
notes: CDR-shuffled IgG
In assay [1], B3 returned an IC50 of 136 pM. Also, the “HTRF Ratio” value in assay [2] worked out at 3670.

B4: CTIR2-2 (antibody, human IgG1, kappa, V domains shown)
VH: EVQLVQSGAEVKKPGASVKVSCKASGYTFTGYYMHWVRQAPGQGLEWMGWINPRSGATNFPQKFQGRVTMTRDTSITTAYMDLSRLRSDDTAVYYCARESGDDAFDIWGQGTMVTVSS
VL: DIVMTQSPSSLSASVGDRVTITCRASQSISSYLNWYQQKPGKAPKLLIYAASSLQYGVPSRFSGSGSGTDFTLTISSLQPEDFATYYCQQSVGLSFGGGTKVEIKR
notes: CDR-shuffled IgG
Turning to B4, the IC50 in assay [1] turned out to be 109 pM. For the same molecule, the “HTRF Ratio” value in assay [2] came out at 4330.

B5: CTIR2-3 (antibody, human IgG1, kappa, V domains shown)
VH: EVQLVQSGAEVKKPGASVKVSCKASGYTFTGYYMHWVRQAPGQGLEWMGWINPRSGATNFPQKFQGRVTMTRDTSITTAYMDLSRLRSDDTAVYYCARESGDDAFDIWGQGTMVTVSS
VL: DIVMTQSPSSLSASVGDRVTITCRASQSISSYLNWYQQKPGKAPKLLIYAASSLQYGVPSRFSGSGSGTDFTLTISSLQPEDFATYYCQQSVGLFFGGGTKVEIKR
notes: CDR-shuffled IgG
In turn, B5 yielded an IC50 in assay [1] of 154 pM. For the same molecule, in assay [2], the “HTRF Ratio” value is 4050.

B6: CTIR2-12 (antibody, human IgG1, kappa, V domains shown)
VH: EVQLVQSGAEVKKPGASVKVSCKASGYTFRGYAMHWVRQAPGQGLEWMGWIDPRTGLTKFPQKFQGRVTMTRDTSITTAYMDLSRLRSDDTAVYYCARESGDDAFDIWGQGTMVTVSS
VL: DIVMTQSPSSLSASVGDRVTITCRASQKISSYLNWYQQKPGKAPKLLIYAASSLQSGVPSRFSGSGSGTDFTLTISSLQPEDFATYYCQQSYSTSFGGGTKVEIKR
notes: CDR-shuffled IgG
For B6, the IC50 in assay [1] was 76 pM. In assay [2], the “HTRF Ratio” value was 4580.

B7: CTIR2-8 (antibody, human IgG1, kappa, V domains shown)
VH: EVQLVQSGAEVKKPGASVKVSCKASGYTFTGYYMHWVRQAPGQGLEWMGWINPKSGATNFPQKFQGRVTMTRDTSITTAYMDLSRLRSDDTAVYYCARESGDDAFDIWGQGTMVTVSS
VL: DIVMTQSPSSLSASVGDRVTITCRASQKISSYLNWYQQKPGKAPKLLIYAASSLQYGVPSRFSGSGSGTDFTLTISSLQPEDFATYYCQQSVGLSFGGGTKVEIKR
notes: CDR-shuffled IgG
As for B7, in assay [1], the IC50 was determined as 108 pM. Further, the “HTRF Ratio” value in assay [2] amounted to 3860.

B8: CTIR2-4 (antibody, human IgG1, kappa, V domains shown)
VH: EVQLVQSGAEVKKPGASVKVSCKASGYTFTGYYMHWVRQAPGQGLEWMGWINPKSGATNFPQKFQGRVTMTRDTSITTAYMDLSRLRSDDTAVYYCARESGDDAFDIWGQGTMVTVSS
VL: DIVMTQSPSSLSASVGDRVTITCRASQKISSYLNWYQQKPGKAPKLLIYAASSLQYGVPSRFSGSGSGTDFTLTISSLQPEDFATYYCQQSYSTSFGGGTKVEIKR
notes: CDR-shuffled IgG
The molecule B8 displayed an IC50 in assay [1] of 380 pM. Besides, the “HTRF Ratio” value in assay [2] is 6170.

B9: CTIR2-5 (antibody, human IgG1, kappa, V domains shown)
VH: EVQLVQSGAEVKKPGASVKVSCKASGYTFTGYYMHWVRQAPGQGLEWMGWINPKSGATNFPQKFQGRVTMTRDTSITTAYMDLSRLRSDDTAVYYCARESGDDAFDIWGQGTMVTVSS
VL: DIVMTQSPSSLSASVGDRVTITCRASQKISSYLNWYQQKPGKAPKLLIYAASSLQSGVPSRFSGSGSGTDFTLTISSLQPEDFATYYCQQSLELGFGGGTKVEIKR
notes: CDR-shuffled IgG
The molecule B9 displayed an IC50 in assay [1] of 165 pM. In assay [2], the “HTRF Ratio” value turned out to be 5180.
